What was measured:
GLI2 = experiment: In vitro kinase assay, phosphorylation of GLI2; assay type: biochemical; details: FLAG-tagged GLI2 immunoprecipitated from HEK293 cells
Experimental: (§1) HEK293 cells were transfected with 13.5 μg of FLAG-tagged constructs expressed GLI1, GLI2, GLI3, ULK3, ULK3(K44R), ULK3(K139R) or FLAG-CMV-4 empty vector on 10 cm plates. The cells were lysed with 0.5 ml of Lysis Buffer (50 mM Tris HCl, pH 7.4, 150 mM NaCl, 1 mM EDTA, 1% Triton X-100) containing protease inhibitor cocktail (PIC) (Roche Applied Science). The lysates were centrifuged for 15 min at 4° C. and 15000 g, and the supernatants were used for immunoprecipitation (IP). IP was performed using anti-FLAG-M2 affinity gel (Sigma-Aldrich) in batch format according to the manufacture's instructions. Immune complexes were washed three times with 500 μl of Kinase Buffer (KB) (50 mM HEPES, pH 7.4, 20 mM MgCl2, 25 μM ATP) and resuspended in 12.5 μl of KB. One fifth of the immuno-complexes was subjected to WB and the rest was used for the kinase assay.
(§2) Kinase reactions were carried out in KB in a total volume of 20 μl of in the presence of 1 μCi of [γ-^32P]ATP per reaction. We used 1 μl of the immunoprecipitated ULK3, ULK3(K44R) or ULK3(K139R) mixed with 5 μl of the GLI-M2 immunocomplexes or 5 μl of bacterially expressed and purified His-GLI1 fragments. Kinase reactions were held at 30° C. for 30 min and terminated by adding of 5 μl of 4× Laemmli Sample Buffer. Proteins were resolved by SDS-PAGE. […]

GLI3 = experiment: In vitro kinase assay, phosphorylation of GLI3; assay type: biochemical; details: FLAG-tagged GLI3 immunoprecipitated from HEK293 cells
Experimental: as §1, §2

GLI1 = experiment: In vitro kinase assay, phosphorylation of GLI1; assay type: biochemical, human
Experimental: Three overlapping human GLI1 domains corresponding to amino acids 1-433, 426-754 and 726-1106 were cloned into pET-15b vector (Novagen) between NdeI and BamHI sites. GLI1 amino acid sequence is provided as SEQ ID NO: 2). The fragments were expressed in BL21(DE3)pLys E. coli strain overnight at 21° C. using 0.1 mM IPTG and purified using Ni-CAM™ HC resin (Sigma-Aldrich) according to the manufacturer's recommendations. The proteins were eluted by PBS and verified by Western Blot (WB).
as §1
Kinase reactions were carried out in KB in a total volume of 20 μl of in the presence of 1 μCi of [γ-^32P]ATP per reaction. We used 1 μl of the immunoprecipitated ULK3, ULK3(K44R) or ULK3(K139R) mixed with 5 μl of the GLI-M2 immunocomplexes or 5 μl of bacterially expressed and purified His-GLI1 fragments. Kinase reactions were held at 30° C. for 30 min and terminated by adding of 5 μl of 4× Laemmli Sample Buffer. Proteins were resolved by SDS-PAGE. The gel was dried at 80° C. for 2 h, and autoradiography was performed using Bio-Rad Personal Molecular Imager FX.
We also assayed whether ULK3 is able to phosphorylate GLI proteins. FLAG-tagged GLI1, GLI2 and GLI3 proteins were expressed and immunoprecipitated from HEK293 cells and used as substrates for immunopurified ULK3 in the in vitro kinase assay. ULK3 was able to phosphorylate GLI proteins but with different efficiency (FIG. 3B). […] To support these findings and identify the regions in GLI1 protein that are phosphorylated by ULK3, we used bacterially expressed His-tagged fragments of GLI1 as substrate for ULK3 kinase. Two of them—GLI1(1-433) and GLI1(726-1106)—were phosphorylated by ULK3.

[1] = bacterially expressed His-tagged fragment

phosphorylation of GLI2 (GLI2): strongest phosphorylation signal | phosphorylation of GLI1(1-433) fragment (GLI1; [1]): phosphorylated | phosphorylation of GLI1(726-1106) fragment (GLI1; [1]): phosphorylated | phosphorylation of central part of GLI1 (amino acids 426-754) (GLI1; [1]): not phosphorylated
B1: ULK3: human serine/threonine kinase, 472 amino acids (SEQ ID NO: 1), overexpressed from cloned cDNA or immunopurified FLAG-tagged (protein, listed as Homo sapiens)
chain: MAGPGWGPPRLDGFILTERLGSGTYATVYKAYAKKDTREVVAIKCVAKKSLNKASVENLLTEIEILKGIRHPHIVQLKDFQWDSDNIYLIMEFCAGGDLSRFIHTRRILPEKVARVFMQQLASALQFLHERNISHLDLKPQNILLSSLEKPHLKLADFGFAQHMSPWDEKHVLRGSPLYMAPEMVCQRQYDARVDLWSMGVILYEALFGQPPFASRSFSELEEKIRSNRVIELPLRPLLSRDCRDLLQRLLERDPSRRISFQDFFAHPWVDLEHMPSGESLGRATALVVQAVKKDQEGDSAAALSLYCKALDFFVPALHYEVDAQRKEAIKAKVGQYVSRAEELKAIVSSSNQALLRQGTSARDLLREMARDKPRLLAALEVASAAMAKEEAAGGEQDALDLYQHSLGELLLLLAAEPPGRRRELLHTEVQNLMARAEYLKEQVKMRESRWEADTLDKEGLSESVRSSCTLQ
modifications: PEPTIDE (1)..(472) ULK3
phosphorylation of GLI3 (GLI3): significantly lower intensity as compared to GLI2 | phosphorylation of GLI1 (GLI1; FLAG-tagged GLI1 immunoprecipitated from HEK293 cells): significantly lower intensity as compared to GLI2

From patent US20130040894A1, “INHIBITION OR ACTIVATION OF SERINE/THREONINE ULK3 KINASE ACTIVITY” (TALLINN UNIVERSITY OF TECHNOLOGY, priority 2009, published 2013)
